The text below walks through data of patent publication US20030162190.

For orientation: Kd means the concentration at which binding is half-saturated. Read a low Kd as a tighter complex.

The target of data set [1] is NF-kB p65 (RelA) homodimer (UniProt Q04206). Description: EMSA. As to conditions: 1:1 stoichiometry; method inferred. (In general: In EMSA bound probe runs differently from free probe, usually more slowly.)
In the next data set the target is NF-kB p50 homodimer (UniProt P19838). As to the kind of experiment: EMSA. The conditions noted are these: only 'similar data was collected for p50'; method inferred.
Sequence of NF-kB p50 homodimer (P19838 1-433): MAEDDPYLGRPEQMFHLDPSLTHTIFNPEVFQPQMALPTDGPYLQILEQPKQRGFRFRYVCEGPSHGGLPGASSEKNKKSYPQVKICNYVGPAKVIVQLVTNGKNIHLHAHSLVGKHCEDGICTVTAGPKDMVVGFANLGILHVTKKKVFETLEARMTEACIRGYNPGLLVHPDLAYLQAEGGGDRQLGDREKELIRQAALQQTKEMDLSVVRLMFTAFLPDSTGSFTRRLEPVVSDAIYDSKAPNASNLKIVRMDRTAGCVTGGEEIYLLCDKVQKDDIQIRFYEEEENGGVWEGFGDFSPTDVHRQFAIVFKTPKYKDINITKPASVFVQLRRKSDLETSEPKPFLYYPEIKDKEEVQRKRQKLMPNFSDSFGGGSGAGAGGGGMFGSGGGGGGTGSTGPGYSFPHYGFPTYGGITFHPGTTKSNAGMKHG

Sequence of NF-kB p65 (RelA) homodimer (Q04206 whole entry): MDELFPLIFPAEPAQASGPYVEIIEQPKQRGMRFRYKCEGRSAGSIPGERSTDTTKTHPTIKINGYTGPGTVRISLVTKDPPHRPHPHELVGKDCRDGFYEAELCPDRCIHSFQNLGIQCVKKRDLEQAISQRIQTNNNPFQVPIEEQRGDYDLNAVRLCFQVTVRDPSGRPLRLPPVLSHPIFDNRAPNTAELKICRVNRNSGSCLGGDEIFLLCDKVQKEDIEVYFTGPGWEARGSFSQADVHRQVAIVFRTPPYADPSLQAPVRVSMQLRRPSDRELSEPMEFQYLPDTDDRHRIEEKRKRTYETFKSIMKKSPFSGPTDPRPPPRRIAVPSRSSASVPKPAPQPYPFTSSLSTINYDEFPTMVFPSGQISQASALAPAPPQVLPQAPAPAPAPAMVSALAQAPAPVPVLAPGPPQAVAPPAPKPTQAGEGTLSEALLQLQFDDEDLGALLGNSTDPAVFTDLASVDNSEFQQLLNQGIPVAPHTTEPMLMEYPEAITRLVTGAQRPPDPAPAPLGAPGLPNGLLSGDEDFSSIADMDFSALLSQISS

IgkB 22-mer promoter site: the Kd (in data set [1]; with NF-kB p50 homodimer) was 4 nM in each case.
